We go through five molecules from patent publication US20190233521A1 (GENEFRONTIER, published 2019).

Changes are numbered by the printed parent chain.

Assay [1] concerns the target T1, human CD69 partial peptide #26 (YAGREEHWVGLK) (human).
T1 construct: Immobilized on a PepSpots peptide array (JPT)
T1 peptide: YAGREEHWVGLK
Nature of the assay: peptide array (PepSpots), HRP-labelled antibody. The text has this: (§1) To be specific, as shown in the following Table, a peptide array consisting of peptides having the residue number of 12 amino acid residues and an offset of 3 amino acid residues was produced for a sequence covering the extracellular domain of human CD69 (60-199) (PepSpots, manufactured by JPT). The peptide array and the anti-human CD69 antibody were reacted according to the manual of JPT. Anti-human CD69 antibodies labeled with HRP (Peroxidase Labeling Kit-NH2, manufactured by Dojindo) were used.

Assay [2] has as its target T2, human CD69 recombinant protein (extracellular region 62-199, homodimer) (human, UniProt Q07108 62-199).
T2 construct: Expressed in the E. coli periplasm from cDNA NM_001781; also called human CD69 homodimer protein; extracellular domain of human CD69
T2 sequence: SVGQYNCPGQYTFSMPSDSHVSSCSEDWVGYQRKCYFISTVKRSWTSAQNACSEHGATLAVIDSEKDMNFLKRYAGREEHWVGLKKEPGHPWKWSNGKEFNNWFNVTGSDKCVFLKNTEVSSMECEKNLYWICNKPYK
Nature of the assay: Scatchard plot; solution equilibrium with antigen, free IgG measured by ELISA. Here is the method:
In the present specification, the KD value relating to the binding affinity of the antibody of the present invention to human CD69 is calculated according to the principle described in Immunoassays (OXFORD UNIVERSITY PRESS, 2000) using a scatchard plot method. An antibody is incubated with various concentrations of antigen (extracellular domain of human CD69) at room temperature for 2 hr until equilibrium, and the amount of free antibody present in the incubation solutions is measured by the ELISA method. The binding constant and dissociation constant (KD value) are determined based on the changes in the amount of free antibody in each equilibrated sample. The antibody concentration during equilibration reaction is to be 0.015 μg/ml, and an ELISA plate for the measurement of the amount of free antibody is to be immobilized with the antigen at 1 μg/ml.
(§2) The affinity of the prepared IgG clones for human CD69 was evaluated by scatchard plot. To be specific, it was calculated according to the principle described in Immunoassays (OXFORD UNIVERSITY PRESS, 2000). An antibody was incubated with various concentrations of antigen at room temperature for 2 hr until it reaches equilibrium, and the amount of free antibody present in the incubation liquids was measured by the ELISA method. The binding constant and dissociation constant (KD value) were determined based on the changes in the amount of free antibody in each equilibrate sample. The concentration of the antibody in the equilibration reaction was set to […], and an ELISA plate immobilized with the antigen at 1 μg/ml was used for the measurement of the amount of free antibody.

Assay [3] concerns the target T2, human CD69 recombinant protein …. Nature of the assay: Scatchard plot KD; reference 160-c76 IgG. Here is the method: as §2
Assay [4] has as its target T3, human CD69 partial peptide #24 (MNFLKRYAGREE) (human).
T3 construct: Immobilized on a PepSpots peptide array (JPT)
T3 peptide: MNFLKRYAGREE
Nature of the assay: peptide array (PepSpots), HRP-labelled antibody.
Source text: as §1

For assay [5], the target named is T4, human CD69 partial peptide #25 (LKRYAGREEHWV) (human).
T4 construct: Immobilized on a PepSpots peptide array (JPT)
T4 peptide: LKRYAGREEHWV
Kind of assay: peptide array (PepSpots), HRP-labelled antibody.
Source text: as §1

B1: 160-c7 IgG antibody (IgG4) (antibody, V domains shown)
VH: QVQLVQSGAEVKKPGASVKVSCKASGYTFTSYDMHWVRQAPGQGLEWMGWINPYSGNTNYAQKFQGRVTMTRDTSISTAYMELSSLRSEDTAVYYCARMYYDKDYLSWGTDSWGQGTLVTVSS
VL: DIQMTQSPSSLSASVGDRVTITCRASQDISSYLNWYQQKPGKAPKLLIYGASNLQSGVPSRFSGSGSGTDFTLTISSLQPEDFAVYYCQQYSDYPHTFGQGTKVEIKR
notes: Full IgG made in HEK293T; HRP-labelled in the peptide array
Regarding B1, the binding result in assay [1] was “binds”. In assay [2], the Kd is 47.6 nM.

B2: 234-61 IgG antibody (IgG4) (antibody, V domains shown)
VH: QVQPGGSLRLSCAASGFTFSNFVMHWVRQAPGKGLEWVSSISGSSSSTYYADSVKGRFTISRDNSKNTLYLQMNSLRAEDTAVYYCARYYYASFDYWGQGTLVTVSS
VL: DIELTQPPSVSVAPGQTARISCSGDSLGSKYVYWYQQKPGQAPVVVIYGDSKRPSGIPERFSGSNSGNTATLTISGTQAEDEADYYCQSYTSFTTKIVFGGGTKLTVLG
In the case of B2, the “fold increase of affinity against 160-c76” value in assay [3] came out at 9 fold. Further, in assay [2], the Kd amounted to 1.13 nM.

B3: 160-c76 IgG antibody (IgG4) (antibody, V domains shown)
VH: B2 VH
VL: DIELTQPPSVSVAPGQTARISCSGDSLGSKYVYWYQQKPGQAPVVVIYGDSKRPSGIPERFSGSNSGNTATLTISGTQAEDEADYYCQSYDSNIMVFGGGTKLTVLG
notes: Full IgG made in HEK293T
With B3, the Kd in assay [2] was 27.8 nM.

B4: 234-83 IgG antibody (IgG4) (antibody, V domains shown)
VH: B2 VH
VL: B2 VL with Q88G, S92T, F93G, T94A, T95K, K96S, I97H
notes: HRP-labelled in the peptide array
Consider B4, for which the “fold increase of affinity against 160-c76” value in assay [3] was at least 9 fold. The dissociation constant (Kd) in assay [2] stood at 2.83 nM.

B5: 160-c103 IgG antibody (IgG4) (antibody, V domains shown)
VH: QVQLVESGGGLVQPGGSLRLSCAASGFTFSNYYMSWVRQAPGKGLEWVSVISYDGISTHYADSVKGRFTISRDNSKNTLYLQMNSLRAEDTAVYYCARYIGNSLYMDFWGQGTLVTVSS
VL: DIVLTQSPATLSLSPGERATLSCRASQSVSSYLAWYQQKPGQAPRLLIYGTSIRATGVPARFSGSGSGTDFTLTISSLEPEDFATYYCQQEYSSPPTFGQGTKVEIKR
notes: as for B1
On to B5, for which the binding result in assay [4], in assay [5] and in assay [1] was “binds” in each case. In assay [2], the equilibrium dissociation constant (Kd) was 7.58 nM.
